Assay results as given in patent US20220332804A1 (CSL INNOVATION, published 2022).

Legend:
Experiment in all cases: SPR, antibody captured, C2 as analyte;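 note: biacore at 37 °C, anti-C2 mAbs held by immobilised goat anti-human IgG, C2 alanine or serine mutants injected, double-referenced sensorgrams fitted to a 1:1 kinetic or steady-state model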
[1] = molecular target: T1, human C2 F689A (human, UniProt P06681 21-752)
T1 sequence: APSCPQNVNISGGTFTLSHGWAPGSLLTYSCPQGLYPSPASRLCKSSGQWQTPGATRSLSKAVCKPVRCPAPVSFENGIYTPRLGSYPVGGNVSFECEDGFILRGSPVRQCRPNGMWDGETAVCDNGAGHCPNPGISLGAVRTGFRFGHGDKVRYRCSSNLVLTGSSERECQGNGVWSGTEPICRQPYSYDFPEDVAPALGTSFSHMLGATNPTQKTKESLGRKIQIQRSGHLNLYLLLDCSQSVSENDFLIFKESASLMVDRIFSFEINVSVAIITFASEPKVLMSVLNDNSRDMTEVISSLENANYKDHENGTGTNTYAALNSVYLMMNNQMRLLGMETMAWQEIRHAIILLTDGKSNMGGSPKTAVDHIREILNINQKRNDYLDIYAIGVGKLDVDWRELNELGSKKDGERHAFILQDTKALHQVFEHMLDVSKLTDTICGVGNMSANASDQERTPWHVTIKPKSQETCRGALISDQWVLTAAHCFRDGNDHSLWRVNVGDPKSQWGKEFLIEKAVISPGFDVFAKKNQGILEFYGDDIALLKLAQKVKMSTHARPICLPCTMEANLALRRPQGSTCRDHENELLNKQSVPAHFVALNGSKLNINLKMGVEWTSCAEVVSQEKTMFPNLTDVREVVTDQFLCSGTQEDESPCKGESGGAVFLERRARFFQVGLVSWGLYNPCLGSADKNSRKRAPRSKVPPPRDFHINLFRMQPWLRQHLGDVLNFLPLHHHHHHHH
Description: (§1) Surface plasmon resonance (SPR, Biacore) was used for all binding affinity analyses. In brief, goat anti-human IgG was directly immobilised onto the carboxymethyl dextran surface of CM5 sensorchips to approximately 12,000 RU using standard NHS/EDC chemistry at pH 5. The immobilised antibody surface was pre-conditioned with ten injections of polyclonal human IgG (Privigen 60 s) prepared at 1 μg/mL. Ligands (anti-C2 mAbs) were captured at the beginning of each cycle as described below. An adjacent spot or flow cell in which only Polyclonal IgG was capture was used as a reference surface. The goat anti-human IgG Fc antibody surface was regenerate in 100 mM H3PO4, injected for 45 seconds at the end of each cycle. Experiments were performed at 37° C. and the flow rate of each experiment was kept constant at 30 μL/min.
(§2) Sensogram data was double-referenced against a reference anti-IgG surface (i.e. minus anti-C2 mAb) and blank buffer injections obtained within each experiment. The binding data was fit to 1:1 (kinetic or steady-state) model using local Rmax and null refraction index (RI=0) when appropriate. Buffers and solutions were filtered (0.22 μm) prior to use.

[2] = molecular target: T2, human C2 V455A (human, UniProt P06681 21-752)
T2 sequence: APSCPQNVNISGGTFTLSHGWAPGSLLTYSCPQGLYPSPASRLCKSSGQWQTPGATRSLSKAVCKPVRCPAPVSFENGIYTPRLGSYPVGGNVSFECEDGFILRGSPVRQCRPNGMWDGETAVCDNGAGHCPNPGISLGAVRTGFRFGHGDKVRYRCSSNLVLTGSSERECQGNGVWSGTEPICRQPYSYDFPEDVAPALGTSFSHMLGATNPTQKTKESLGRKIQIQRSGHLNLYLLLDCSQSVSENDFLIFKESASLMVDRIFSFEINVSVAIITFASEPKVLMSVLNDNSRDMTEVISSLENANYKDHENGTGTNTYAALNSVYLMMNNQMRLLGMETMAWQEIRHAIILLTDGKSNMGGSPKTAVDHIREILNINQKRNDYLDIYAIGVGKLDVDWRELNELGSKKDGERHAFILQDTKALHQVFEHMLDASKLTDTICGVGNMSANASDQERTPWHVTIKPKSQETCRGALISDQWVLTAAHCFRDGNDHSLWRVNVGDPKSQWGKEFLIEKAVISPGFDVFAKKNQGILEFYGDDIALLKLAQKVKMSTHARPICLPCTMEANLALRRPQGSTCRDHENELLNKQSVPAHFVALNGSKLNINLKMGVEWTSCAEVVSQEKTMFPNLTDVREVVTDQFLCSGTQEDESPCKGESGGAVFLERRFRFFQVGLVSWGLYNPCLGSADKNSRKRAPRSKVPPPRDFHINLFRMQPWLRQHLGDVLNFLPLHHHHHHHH
Description: as §1, §2

[3] = molecular target: T3, human C2 G466A (human, UniProt P06681 21-752)
T3 sequence: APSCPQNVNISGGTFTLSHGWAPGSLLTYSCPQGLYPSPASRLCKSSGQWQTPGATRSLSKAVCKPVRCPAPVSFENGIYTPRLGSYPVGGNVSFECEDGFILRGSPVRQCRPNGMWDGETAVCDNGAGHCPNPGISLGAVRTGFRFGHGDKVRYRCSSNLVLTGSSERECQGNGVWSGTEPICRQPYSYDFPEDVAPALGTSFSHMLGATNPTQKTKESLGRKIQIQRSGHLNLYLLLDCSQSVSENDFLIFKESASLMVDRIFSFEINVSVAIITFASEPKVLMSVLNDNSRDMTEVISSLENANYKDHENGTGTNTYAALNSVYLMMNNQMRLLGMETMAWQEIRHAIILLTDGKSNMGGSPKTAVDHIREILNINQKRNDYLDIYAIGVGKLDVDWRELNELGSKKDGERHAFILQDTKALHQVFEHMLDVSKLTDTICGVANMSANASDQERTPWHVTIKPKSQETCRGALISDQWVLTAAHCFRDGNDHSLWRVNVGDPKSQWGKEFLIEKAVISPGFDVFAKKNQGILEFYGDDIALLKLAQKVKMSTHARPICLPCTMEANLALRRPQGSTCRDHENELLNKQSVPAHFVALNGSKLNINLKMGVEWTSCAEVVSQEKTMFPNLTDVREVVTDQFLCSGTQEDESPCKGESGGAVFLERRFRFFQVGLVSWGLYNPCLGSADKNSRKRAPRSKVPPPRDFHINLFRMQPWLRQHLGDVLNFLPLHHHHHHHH
Description: as §1, §2

[4] = molecular target: T4, human C2 D431A (human, UniProt P06681 21-752)
T4 sequence: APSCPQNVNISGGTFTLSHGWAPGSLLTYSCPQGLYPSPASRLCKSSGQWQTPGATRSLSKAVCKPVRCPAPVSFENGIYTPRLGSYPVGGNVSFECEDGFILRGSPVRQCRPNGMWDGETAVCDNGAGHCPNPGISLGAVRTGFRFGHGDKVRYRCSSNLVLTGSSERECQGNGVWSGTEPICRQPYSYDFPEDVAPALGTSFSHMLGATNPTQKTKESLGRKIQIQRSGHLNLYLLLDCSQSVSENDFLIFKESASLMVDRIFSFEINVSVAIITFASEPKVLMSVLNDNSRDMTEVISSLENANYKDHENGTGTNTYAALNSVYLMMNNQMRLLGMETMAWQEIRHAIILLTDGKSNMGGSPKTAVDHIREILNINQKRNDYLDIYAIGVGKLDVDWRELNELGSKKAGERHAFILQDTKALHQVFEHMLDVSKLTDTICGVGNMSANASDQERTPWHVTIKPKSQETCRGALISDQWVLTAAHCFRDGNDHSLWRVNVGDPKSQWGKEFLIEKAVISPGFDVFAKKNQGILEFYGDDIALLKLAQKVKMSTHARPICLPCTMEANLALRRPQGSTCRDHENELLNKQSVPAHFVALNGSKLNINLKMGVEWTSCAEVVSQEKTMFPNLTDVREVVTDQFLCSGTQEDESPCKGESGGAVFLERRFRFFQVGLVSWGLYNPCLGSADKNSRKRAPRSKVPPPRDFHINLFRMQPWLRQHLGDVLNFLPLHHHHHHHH
Description: as §1, §2

B1: RF16-242 (antibody, human IgG4 S228P, lambda, V domains shown)
VH: EVQLLQSGAEVKKPGESLKISCKGSGYSFTSYWIGWVRQMPGKGLEWMGIIYPGDSDTRYSPSFQGQVTISADKSISTAYLQWSSLKASDTAMYYCARRGHYGDYFDYWGQGTLVTVSS
VL: SYELTQPPSVSVSPGQTARITCSGDALPKKYAYWYHQKSGQAPVLVIYEDRRRPSEIPERFSGSSSGTMATLTITGAQVEDEGVYFCYSRDRAGNQRVFGGGTQLTVLG
notes: pH-dependent anti-C2 antibody from a phage display library
- Kd [1]: 6.3 nM
- Kd [2]: 5.9 nM
- Kd [3]: 24.9 nM
- Kd [4]: 22.9 nM
